The values that follow come from patent publication US5948622.

The data set addresses T1, Tn5 transposase EK54/MA56/LP372 (Escherichia coli transposon Tn5) (UniProt Q46731).
T1 sequence: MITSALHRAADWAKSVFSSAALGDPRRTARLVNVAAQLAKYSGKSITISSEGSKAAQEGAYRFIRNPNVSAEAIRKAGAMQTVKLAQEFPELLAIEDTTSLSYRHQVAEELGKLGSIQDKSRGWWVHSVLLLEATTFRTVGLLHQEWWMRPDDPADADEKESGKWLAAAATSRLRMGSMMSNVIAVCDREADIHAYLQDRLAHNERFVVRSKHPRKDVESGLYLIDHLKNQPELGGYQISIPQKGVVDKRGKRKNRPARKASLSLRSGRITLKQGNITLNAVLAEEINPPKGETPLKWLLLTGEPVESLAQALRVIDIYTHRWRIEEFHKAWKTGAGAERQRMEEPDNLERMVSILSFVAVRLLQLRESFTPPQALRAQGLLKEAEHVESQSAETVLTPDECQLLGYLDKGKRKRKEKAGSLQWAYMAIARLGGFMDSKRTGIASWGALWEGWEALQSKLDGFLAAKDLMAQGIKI
Particulars: pRZTL1 in vitro transposition; Mg acetate 10 mM, K glutamate 0.1 M, 20 C then 37 C; tet-resistance frequency, gel confirmed.

Turning to “AGT (double strand) [Tn5 outside end (OE) wild type]”, the activity was 0.1 % of cells.
